Earlier results on two substances are cited in article PMC9428257.

Data set [1] concerns the target APRIL (Homo sapiens) (UniProt O75888).
Another data set concerns the target BAFF (Homo sapiens) (UniProt Q9Y275).
Data set [2] deals with APRIL (Homo sapiens) (UniProt O75888). This is another data set of the same source.

Values joined by “and” are separate entries in the source; they are usually repeats but may differ in a detail not shown here. Equal entries are not always repeated. Where two headings read alike, the source gives them in different places.

APRIL (Homo sapiens), sequence (O75888 105-250): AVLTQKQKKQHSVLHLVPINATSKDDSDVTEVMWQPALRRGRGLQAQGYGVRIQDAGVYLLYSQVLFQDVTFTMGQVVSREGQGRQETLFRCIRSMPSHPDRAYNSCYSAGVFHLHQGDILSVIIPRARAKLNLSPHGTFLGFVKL
sBCMA ECD, sequence (Q02223 78-184): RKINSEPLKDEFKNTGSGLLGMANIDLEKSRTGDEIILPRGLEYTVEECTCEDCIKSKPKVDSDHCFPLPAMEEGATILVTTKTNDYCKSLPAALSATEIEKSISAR
sTACI-Fc ECD, sequence (O14836 1-165): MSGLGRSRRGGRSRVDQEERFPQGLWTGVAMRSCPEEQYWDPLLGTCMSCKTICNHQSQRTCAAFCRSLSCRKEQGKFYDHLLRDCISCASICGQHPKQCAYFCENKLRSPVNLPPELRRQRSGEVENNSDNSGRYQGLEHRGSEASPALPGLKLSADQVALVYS
BAFF (Homo sapiens), sequence (Q9Y275 134-285): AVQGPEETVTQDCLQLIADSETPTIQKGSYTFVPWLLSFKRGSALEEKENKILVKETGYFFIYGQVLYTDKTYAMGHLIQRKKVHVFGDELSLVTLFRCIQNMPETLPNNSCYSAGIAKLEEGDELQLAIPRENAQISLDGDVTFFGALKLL

Broadly, the Kd is the free concentration of one partner at which half of the binding sites on the other are occupied at equilibrium, for simple one-to-one binding. In the case of sTACI-Fc ECD (from UniProt O14836), the Kd with APRIL (Homo sapiens) [1] was 6.4 nM; with BAFF (Homo sapiens), 0.16 nM. In the case of sBCMA ECD (from UniProt Q02223), in the data set with APRIL (Homo sapiens) [2], the Kd is 0.025 nM and 0.048 nM.
